Assay results reported in article PMC9482650, “Quantitative fragmentomics allow affinity mapping of interactomes” (Nature Communications, 2022).
Where a chain is given by its changes, count along the chain named.

T1: GRIP1_5, Q9Y3R0
T1 sequence (Q9Y3R0 568-668, limits assumed, looked up): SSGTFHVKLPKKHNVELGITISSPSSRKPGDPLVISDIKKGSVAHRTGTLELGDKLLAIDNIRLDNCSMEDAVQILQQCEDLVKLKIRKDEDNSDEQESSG

T2: CARD11, Q9BXL7
T2 sequence (Q9BXL7 662-765, limits assumed, looked up): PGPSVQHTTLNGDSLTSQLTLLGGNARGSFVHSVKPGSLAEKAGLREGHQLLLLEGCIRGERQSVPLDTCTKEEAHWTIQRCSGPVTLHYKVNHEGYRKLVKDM

T3: LIN7B, Q9HAP6
T3 sequence (Q9HAP6 88-185, limits assumed, looked up): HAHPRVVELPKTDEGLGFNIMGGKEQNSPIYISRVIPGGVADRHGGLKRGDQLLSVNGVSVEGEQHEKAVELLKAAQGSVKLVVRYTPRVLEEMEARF

T4: APBA3_1, O96018
T4 sequence (O96018 389-490, limits assumed, looked up): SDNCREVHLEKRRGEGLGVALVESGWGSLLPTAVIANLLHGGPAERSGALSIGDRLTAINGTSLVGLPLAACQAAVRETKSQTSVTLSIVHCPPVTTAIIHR

T5: MPP7, Q5T2T1
T5 sequence (Q5T2T1 134-230, limits assumed, looked up): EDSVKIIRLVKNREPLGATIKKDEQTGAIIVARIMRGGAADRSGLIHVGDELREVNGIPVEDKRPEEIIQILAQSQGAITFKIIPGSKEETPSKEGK

T6: MPDZ_5, O75970
T6 sequence (O75970 695-796, limits assumed, looked up): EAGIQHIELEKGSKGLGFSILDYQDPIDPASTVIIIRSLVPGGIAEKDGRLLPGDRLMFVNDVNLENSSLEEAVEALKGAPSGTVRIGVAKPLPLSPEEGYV

T7: MPDZ_10, O75970
T7 sequence (O75970 1624-1722, limits assumed, looked up): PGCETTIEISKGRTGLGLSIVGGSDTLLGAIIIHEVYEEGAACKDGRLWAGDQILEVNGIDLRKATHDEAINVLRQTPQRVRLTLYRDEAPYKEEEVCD

T8: GRIP1_2, Q9Y3R0
T8 sequence (Q9Y3R0 145-248, limits assumed, looked up): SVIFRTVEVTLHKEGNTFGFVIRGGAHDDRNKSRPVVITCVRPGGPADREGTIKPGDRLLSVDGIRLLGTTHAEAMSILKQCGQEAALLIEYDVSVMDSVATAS

T9: LIN7A, O14910
T9 sequence (O14910 103-200, limits assumed, looked up): T3 sequence (Q9HAP6 88-185, limits assumed, looked up) with A2S, I20V, V35I, D42E, Q65H, Q77K, G78D, R89K

T10: PARD3B_1, Q8TEW8
T10 sequence (Q8TEW8 196-299, limits assumed, looked up): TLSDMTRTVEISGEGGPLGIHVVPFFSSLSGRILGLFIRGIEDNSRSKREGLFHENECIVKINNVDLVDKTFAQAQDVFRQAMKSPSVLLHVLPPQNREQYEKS

T11: GRIP1_4, Q9Y3R0
T11 sequence (Q9Y3R0 467-571, limits assumed, looked up): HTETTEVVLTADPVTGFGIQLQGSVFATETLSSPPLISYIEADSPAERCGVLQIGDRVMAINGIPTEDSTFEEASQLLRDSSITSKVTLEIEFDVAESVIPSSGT


Each binder was assayed against GRIP2_7, Q9C0E4 (assay: holdup assay). Conditions: plain residues with an end cap or a label only (N-terminal biotin on a linker: ahx).
Parameters: key: below the threshold = too weak to quantify, mostly under pKd 3.1 to 4

Chain of GRIP2_7, Q9C0E4 (Q9C0E4 934-1023): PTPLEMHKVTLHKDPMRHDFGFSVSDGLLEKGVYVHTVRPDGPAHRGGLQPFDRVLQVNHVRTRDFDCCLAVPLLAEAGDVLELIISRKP

**Q.** With SAPATLSSRA [PDLIM2, Q96JY6] as the binder, how does the pKd read?
**A.** The pKd was “below the threshold”.

These binders were tested against LNX1_2, Q8TBB1 (assay: holdup assay). Conditions: plain residues with an end cap or a label only (N-terminal biotin on a linker: ahx).
Parameters: key: below the threshold = too weak to quantify, mostly under pKd 3.1 to 4

Chain of LNX1_2, Q8TBB1 (Q8TBB1 371-470): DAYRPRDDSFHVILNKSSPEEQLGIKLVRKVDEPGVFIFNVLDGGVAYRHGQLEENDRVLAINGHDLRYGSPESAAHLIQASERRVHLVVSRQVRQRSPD

**Q.** SAPATLSSRA [PDLIM2, Q96JY6] was tested. Which pKd did it give?
**A.** Its pKd is “below the threshold”.

Each binder was assayed against DLG1_2, Q12959 (assay: holdup assay). Conditions: plain residues with an end cap or a label only (N-terminal biotin on a linker: ahx).
Parameters: key: below the threshold = too weak to quantify, mostly under pKd 3.1 to 4

Chain of DLG1_2, Q12959 (Q12959 314-412): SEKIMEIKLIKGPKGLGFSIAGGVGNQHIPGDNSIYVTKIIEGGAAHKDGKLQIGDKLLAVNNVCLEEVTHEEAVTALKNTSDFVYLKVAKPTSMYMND

**Q.** With SAPATLSSRA [PDLIM2, Q96JY6] as the binder, how does the pKd read?
**A.** The pKd was “below the threshold”.

These binders were tested against Inadl_8, Q8NI35 (assay: holdup assay). Conditions: plain residues with an end cap or a label only (N-terminal biotin on a linker: ahx).
Parameters: key: below the threshold = too weak to quantify, mostly under pKd 3.1 to 4

Chain of Inadl_8, Q8NI35 (Q8NI35 1425-1530): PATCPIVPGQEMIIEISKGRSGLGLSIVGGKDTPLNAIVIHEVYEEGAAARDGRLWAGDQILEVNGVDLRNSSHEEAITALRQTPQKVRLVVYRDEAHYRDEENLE

**Q.** For SAPATLSSRA [PDLIM2, Q96JY6], which pKd is on record?
**A.** The pKd was “below the threshold”.

Each binder was assayed against T1, GRIP1_5, Q9Y3R0 (assay: holdup assay). Conditions: plain residues with an end cap or a label only (N-terminal biotin on a linker: ahx).
Parameters: key: below the threshold = too weak to quantify, mostly under pKd 3.1 to 4

**Q.** SAPATLSSRA [PDLIM2, Q96JY6] was tested. Which pKd did it give?
**A.** The pKd was “below the threshold”.

These binders were tested against T2, CARD11, Q9BXL7 (assay: holdup assay). Conditions: plain residues with an end cap or a label only (N-terminal biotin on a linker: ahx).
Parameters: key: below the threshold = too weak to quantify, mostly under pKd 3.1 to 4

**Q.** Which pKd does the source give for SAPATLSSRA [PDLIM2, Q96JY6] here?
**A.** The pKd was “below the threshold”.

What follows are binders tested against T3, LIN7B, Q9HAP6 (assay: holdup assay). Conditions: plain residues with an end cap or a label only (N-terminal biotin on a linker: ahx).
Parameters: key: below the threshold = too weak to quantify, mostly under pKd 3.1 to 4

**Q.** For SAPATLSSRA [PDLIM2, Q96JY6], which pKd is on record?
**A.** The pKd was “below the threshold”.

The binders below were run against T4, APBA3_1, O96018 (assay: holdup assay). Conditions: plain residues with an end cap or a label only (N-terminal biotin on a linker: ahx).
Parameters: key: below the threshold = too weak to quantify, mostly under pKd 3.1 to 4

**Q.** SAPATLSSRA [PDLIM2, Q96JY6] was tested. Which pKd did it give?
**A.** The pKd was “below the threshold”.

Each binder was assayed against MAGI2_6, Q86UL8 (assay: holdup assay). Conditions: plain residues with an end cap or a label only (N-terminal biotin on a linker: ahx).
Parameters: key: below the threshold = too weak to quantify, mostly under pKd 3.1 to 4

Chain of MAGI2_6, Q86UL8 (Q86UL8 1141-1229): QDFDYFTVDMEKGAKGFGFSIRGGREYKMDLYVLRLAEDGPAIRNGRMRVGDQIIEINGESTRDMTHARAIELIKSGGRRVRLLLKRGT

**Q.** SAPATLSSRA [PDLIM2, Q96JY6] was tested. Which pKd did it give?
**A.** The pKd was “below the threshold”.

Each binder was assayed against NHERF4_2, Q86UT5 (assay: holdup assay). Conditions: plain residues with an end cap or a label only (N-terminal biotin on a linker: ahx).
Parameters: key: below the threshold = too weak to quantify, mostly under pKd 3.1 to 4

Chain of NHERF4_2, Q86UT5 (Q86UT5 220-308): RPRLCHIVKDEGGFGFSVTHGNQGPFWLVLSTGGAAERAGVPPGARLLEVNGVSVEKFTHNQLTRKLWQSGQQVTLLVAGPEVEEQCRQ

**Q.** How did the pKd turn out when SAPATLSSRA [PDLIM2, Q96JY6] was run?
**A.** Its pKd is “below the threshold”.

What follows are binders tested against T5, MPP7, Q5T2T1 (assay: holdup assay). Conditions: plain residues with an end cap or a label only (N-terminal biotin on a linker: ahx).
Parameters: key: below the threshold = too weak to quantify, mostly under pKd 3.1 to 4

**Q.** For SAPATLSSRA [PDLIM2, Q96JY6], which pKd is on record?
**A.** Its pKd is “below the threshold”.

What follows are binders tested against T6, MPDZ_5, O75970 (assay: holdup assay). Conditions: plain residues with an end cap or a label only (N-terminal biotin on a linker: ahx).
Parameters: key: below the threshold = too weak to quantify, mostly under pKd 3.1 to 4

**Q.** For SAPATLSSRA [PDLIM2, Q96JY6], which pKd is on record?
**A.** The pKd was “below the threshold”.

The binders below were run against MAGI1_1, Q96QZ7 (assay: holdup assay). Conditions: plain residues with an end cap or a label only (N-terminal biotin on a linker: ahx).
Parameters: key: below the threshold = too weak to quantify, mostly under pKd 3.1 to 4

Chain of MAGI1_1, Q96QZ7 (Q96QZ7 1-106): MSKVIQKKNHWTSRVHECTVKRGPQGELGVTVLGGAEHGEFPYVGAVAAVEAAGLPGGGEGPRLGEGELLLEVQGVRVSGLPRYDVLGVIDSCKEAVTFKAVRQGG

**Q.** Which pKd does the source give for SAPATLSSRA [PDLIM2, Q96JY6] here?
**A.** The pKd was “below the threshold”.

The binders below were run against Inadl_6, Q8NI35 (assay: holdup assay). Conditions: plain residues with an end cap or a label only (N-terminal biotin on a linker: ahx).
Parameters: key: below the threshold = too weak to quantify, mostly under pKd 3.1 to 4

Chain of Inadl_6, Q8NI35 (Q8NI35 1058-1167): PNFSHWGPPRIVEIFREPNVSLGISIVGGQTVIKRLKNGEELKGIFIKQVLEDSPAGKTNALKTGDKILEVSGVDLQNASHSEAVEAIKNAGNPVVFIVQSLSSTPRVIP

**Q.** With SAPATLSSRA [PDLIM2, Q96JY6] as the binder, how does the pKd read?
**A.** The pKd was “below the threshold”.

Each binder was assayed against T7, MPDZ_10, O75970 (assay: holdup assay). Conditions: plain residues with an end cap or a label only (N-terminal biotin on a linker: ahx).
Parameters: key: below the threshold = too weak to quantify, mostly under pKd 3.1 to 4

**Q.** For SAPATLSSRA [PDLIM2, Q96JY6], which pKd is on record?
**A.** The pKd was 4.

Each binder was assayed against T8, GRIP1_2, Q9Y3R0 (assay: holdup assay). Conditions: plain residues with an end cap or a label only (N-terminal biotin on a linker: ahx).
Parameters: key: below the threshold = too weak to quantify, mostly under pKd 3.1 to 4

**Q.** How did the pKd turn out when SAPATLSSRA [PDLIM2, Q96JY6] was run?
**A.** Its pKd is “below the threshold”.

These binders were tested against MAGI2_2, Q86UL8 (assay: holdup assay). Conditions: plain residues with an end cap or a label only (N-terminal biotin on a linker: ahx).
Parameters: key: below the threshold = too weak to quantify, mostly under pKd 3.1 to 4

Chain of MAGI2_2, Q86UL8 (Q86UL8 410-522): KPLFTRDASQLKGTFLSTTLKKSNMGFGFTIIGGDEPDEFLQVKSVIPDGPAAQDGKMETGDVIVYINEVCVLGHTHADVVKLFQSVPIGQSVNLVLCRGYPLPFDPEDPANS

**Q.** For SAPATLSSRA [PDLIM2, Q96JY6], which pKd is on record?
**A.** Its pKd is “below the threshold”.

What follows are binders tested against FRMPD2_3, Q68DX3 (assay: holdup assay). Conditions: plain residues with an end cap or a label only (N-terminal biotin on a linker: ahx).
Parameters: key: below the threshold = too weak to quantify, mostly under pKd 3.1 to 4

Chain of FRMPD2_3, Q68DX3 (Q68DX3 1073-1166): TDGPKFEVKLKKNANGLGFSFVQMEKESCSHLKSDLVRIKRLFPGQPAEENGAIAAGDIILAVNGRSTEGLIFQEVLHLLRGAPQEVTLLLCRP

**Q.** For SAPATLSSRA [PDLIM2, Q96JY6], which pKd is on record?
**A.** Its pKd is “below the threshold”.

What follows are binders tested against T9, LIN7A, O14910 (assay: holdup assay). Conditions: plain residues with an end cap or a label only (N-terminal biotin on a linker: ahx).
Parameters: key: below the threshold = too weak to quantify, mostly under pKd 3.1 to 4

**Q.** Which pKd does the source give for SAPATLSSRA [PDLIM2, Q96JY6] here?
**A.** Its pKd is “below the threshold”.

Each binder was assayed against T10, PARD3B_1, Q8TEW8 (assay: holdup assay). Conditions: plain residues with an end cap or a label only (N-terminal biotin on a linker: ahx).
Parameters: key: below the threshold = too weak to quantify, mostly under pKd 3.1 to 4

**Q.** With SAPATLSSRA [PDLIM2, Q96JY6] as the binder, how does the pKd read?
**A.** Its pKd is “below the threshold”.

These binders were tested against GRIP2_6, Q9C0E4 (assay: holdup assay). Conditions: plain residues with an end cap or a label only (N-terminal biotin on a linker: ahx).
Parameters: key: below the threshold = too weak to quantify, mostly under pKd 3.1 to 4

Chain of GRIP2_6, Q9C0E4 (Q9C0E4 648-740): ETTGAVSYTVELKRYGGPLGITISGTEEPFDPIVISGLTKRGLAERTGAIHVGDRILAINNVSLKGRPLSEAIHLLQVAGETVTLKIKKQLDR

**Q.** With SAPATLSSRA [PDLIM2, Q96JY6] as the binder, how does the pKd read?
**A.** Its pKd is “below the threshold”.

These binders were tested against GIPC2, Q8TF65 (assay: holdup assay). Conditions: plain residues with an end cap or a label only (N-terminal biotin on a linker: ahx).
Parameters: key: below the threshold = too weak to quantify, mostly under pKd 3.1 to 4

Chain of GIPC2, Q8TF65 (Q8TF65 112-203): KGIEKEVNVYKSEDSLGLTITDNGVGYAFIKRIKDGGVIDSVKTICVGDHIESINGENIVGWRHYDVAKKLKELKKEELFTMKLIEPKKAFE

**Q.** Which pKd does the source give for SAPATLSSRA [PDLIM2, Q96JY6] here?
**A.** The pKd was “below the threshold”.

Each binder was assayed against T11, GRIP1_4, Q9Y3R0 (assay: holdup assay). Conditions: plain residues with an end cap or a label only (N-terminal biotin on a linker: ahx).
Parameters: key: below the threshold = too weak to quantify, mostly under pKd 3.1 to 4

**Q.** With SAPATLSSRA [PDLIM2, Q96JY6] as the binder, how does the pKd read?
**A.** The pKd was “below the threshold”.

Each binder was assayed against DLG2_2, Q15700 (assay: holdup assay). Conditions: plain residues with an end cap or a label only (N-terminal biotin on a linker: ahx).
Parameters: key: below the threshold = too weak to quantify, mostly under pKd 3.1 to 4

Chain of DLG2_2, Q15700 (Q15700 189-283): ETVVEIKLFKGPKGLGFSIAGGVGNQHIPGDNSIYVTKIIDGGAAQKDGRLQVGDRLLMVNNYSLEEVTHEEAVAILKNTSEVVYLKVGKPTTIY

**Q.** How did the pKd turn out when SAPATLSSRA [PDLIM2, Q96JY6] was run?
**A.** The pKd was “below the threshold”.

These binders were tested against TJP2_1, Q9UDY2 (assay: holdup assay). Conditions: plain residues with an end cap or a label only (N-terminal biotin on a linker: ahx).
Parameters: key: below the threshold = too weak to quantify, mostly under pKd 3.1 to 4

Chain of TJP2_1, Q9UDY2 (Q9UDY2 24-128): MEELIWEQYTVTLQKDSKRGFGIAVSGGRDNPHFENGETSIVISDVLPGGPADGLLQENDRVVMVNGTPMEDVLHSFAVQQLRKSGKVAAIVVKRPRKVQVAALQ

**Q.** SAPATLSSRA [PDLIM2, Q96JY6] was tested. Which pKd did it give?
**A.** The pKd was “below the threshold”.
